Results taken from US7550425B2, “Diuretic peptide conjugates” (Zealand Pharma A/S, priority 2000, dated 2009).
Read-outs that look alike come from different tables or passages of the source. Peptide text beside a SMILES is read from it.

Columns and labels:
hORL1 receptor = hORL1 receptor (Homo sapiens, UniProt P41146); assay: Binding to human ORL1 receptor expressed in CHO cells; design: expressed in transfected cells; host or cells: CHO
[1] = test system: conscious Sprague Dawley rats; format: in vivo, rat
Procedure: In the conscious rat model, the animal is chronically instrumented with catheters in the urinary bladder, the femoral artery, and the femoral vein. The animal receives a continuous i.v. infusion with isotonic saline, 50 μl/min. Urine is collected in vials in consequtive urine collection periods of 10 min each. After two control periods, the test compound is administered and fractionated urine collections (10 min periods) are continued for at least two hours. Urinary concentrations of sodium and potassium are determined by flame photometry (Instrumentation Laboratory 943) using caesium as internal standard.
The diuretic effect of the peptide conjugates of the invention has been tested in conscious rats, where Compound 1 elicits a powerful and sustained diuretic response. Cardiovascular and renal responses produced by i.v. infusion of nociceptin (Phoenix Pharmaceuticals) and Compound 1 have been studied in conscious Sprague Dawley rats. The results are shown in FIGS. 2 to 8 wherein HR is heart rate, MAP is mean arterial pressure, V is urine flow rate, UNaV is urinary excretion rate of sodium, RSNA is renal sympathetic nerve activity expressed as % of the control level, Cosm is the osmolar clearance, and CH2O is free water clearance.
Furthermore, the effects of i.v. bolus administration of nociceptin (30 and 100 nmol/kg, Phoenix Pharmaceuticals) and nociceptin-NH2 (30 nmol/kg) on heart rate, arterial pressure and RSNA were studied in groups of 6 conscious Sprague-Dawley rats.
[…] After stabilization of urine flow rate and urinary sodium excretion, urine was collected during a 20-min control period. After this, the i.v. bolus injection was given or the i.v. infusate was switched to a solution of isotonic saline containing Compound 1 (i.v. infusion experiments). From the time of drug administration, experimental urine samples (10-min consecutive periods) were taken for 80 min.
One hour prior to the start of each experiment a food pellet (standard rodent chow) was placed within access to the rat though a hole in the rat holder. The number and time of feeding responses (i.e., times in which the rat began to eat the food pellet) was recorded before, and after drug administration. If a positive feeding response was observed, the pellet was removed from the restrainer to prevent feeding-induced alterations in heart rate and/or mean arterial pressure. At 10-min intervals, the food pellet was presented to the rat to determine the duration of the feeding response.

mouse vas deferens = assay: Mouse vas deferens assay: inhibition of electrically-induced contraction; conditions: cumulative addition; data not shown
Source text: The compounds of the present invention are pharmacologically active, e.g. as nociceptin agonists or partial agonists, and a useful method of showing activity is described by Hughes J., Kosterlitz H. W., Leslie F. M.: Effect of morphine on adrenergic transmission in the mouse vas deferens. Assessment of agonist and antagonist potencies of narcotic analgesics^[4]. The isolated electrically stimulated mouse vas deferens preparation has been widely used to evaluate the functional pharmacological actions of opioid agonists and antagonists in vitro^[5].
(§1) The vas deferens from male NMRI albino mice weighing 30-40 g were placed in a SCHULER organ bath Type 809, Hugo Sachs Elektronik, Germany, and perfused with a 37° C., modified Krebs solution (NaCl 6,9 g/L, KCl 0.35 g/L, KH2PO4 0.16 g/L, NaHCO3 2.1 g/L, Glucose H2O 2.0 g/L, CaCl2 2.52 mL/L). The solution was gassed with carbogen (95% O2 and 5% CO2) throughout the experiment. The tissue was electrically stimulated through two silver electrodes directly in the organ bath using a HSE Stimulator I Type 215. Stimulation of the tissue was performed by applying a supramaximal voltage (15 Volts) in trains of 10 square pulses every 60 s, each of 1 ms duration with a frequency of […]. Concentration-response curves were performed by adding test substances that relax mouse vas deferens smooth muscles cumulatively to the organ baths. The test substances used in the assay were nociceptin in an isotonic saline solution, Compound 1 (as the trifluoroacetate in an isotonic saline solution), Compound 2 (as the trifluoroacetate in an isotonic saline solution), and the hexapeptide Ac-RYYRWK-NH2 (SEQ ID NO: 1) (as the trifluoroacetate in an isotonic saline solution).

[2] = In vitro stability in heparinised human plasma; format: in vitro ADME
Procedure: In addition, the degradation of Compound 1 of the invention has been studied in heparinised human plama.
The stability of peptides is analysed in human plasma. The peptides are incubated at 37° C. in plasma and samples taken at approx. 8 regular intervals between t=0 and t=390 min for Compound 1 and nociceptin-NH2, and at 9 intervals between t=0 and t=32 min for Compound CE1 are analysed by HPLC. […] This is done by subsequent injections of the drug, plasma, and a co-injection with the drug and the plasma, followed by optimisation of the LC method parameters until a satisfactory separation is obtained. Three parallel experiments are performed for each plasma type. 100 μl of peptide is mixed with 900 μl plasma at t=0 and incubated at 37° C. (drug-plasma mixture conc. 0.1 mg/ml). Samples of 100 μl of the drug-plasma mixture are removed at appropriate intervals and the degradation stopped by precipitation of the sample with 10 μl MeCN:TFA 50:50 v/v. A control plasma sample without the drug treated in the same manner is also taken. The plasma samples are centrifuged for 15 min. at 12,000 rpm (Eppendorf centrifuge) at ambient temperature. The resulting supernatant solution is transferred to 300 μl HP autosamler vials and analyzed by HPLC. HPLC analysis are performed as follows:
Ac-RYYRWK-NH2 (SEQ ID NO: 1) and Compound 1
The samples are analysed in the following order: blank, the peptide at 0.1 mg/mL, the plasma without the peptide, the three parallel samples for t=0, the three parallel samples for t=5 min. the three parallel samples for t=60 min. etc. And finally the three parallel samples for t=0 are repeated to make sure that there have been no degradation or other failure during the analyses. The sample concentrations (peak height in mAU) are plotted vs. time and fitted to a function describing a mono exponential decay (Excel). The half-lives of the peptides in plasma are presented in Table 7 as mean (n=3)±standard deviation.

[3] = In vitro stability in heparin stabilised mouse plasma; format: in vitro ADME; conditions: heparinised mouse plasma, 37° C., read-out: half-life t½ of degradation
Procedure: Degradation of peptides is almost exclusively seen in the presence of enzymes, e.g. in the bloodstream. An important feature of a putative drug is whether it is quickly degraded in vivo or whether it is able to conduct its effects over a longer period of time. To be able to examine the stability of the peptide conjugates of the present invention degradation was tested in heparin stabilised mouse plasma (obtained from Harlan Seralab, UK).
The stability studies were run in triplicate. 100 μL of a 1 mg/mL solution of the test compound (peptide conjugate) was added to an Eppendorf tube, containing 900 μL plasma, incubated at 37° C. Immediately after addition, a sample of 100 μL was removed and added to an Eppendorf tube, containing 10 μL of extraction solution (50% TFA (trifluoroacetic acid) in MeCN, v/v). This sample constitutes t=0. […] The samples are centrifuged at 20,000×g, and the supernatant was transferred to vials and analysed by high-performance liquid chromatography (HPLC).
The analysis was performed on a HP1100 HPLC with a quaternary pump. The column used was a Vydac 201SP5215, and the apparatus comprises an autosampler, a column oven, a variable UV detector and a fluorescence detector. […] These values were transferred to Microsoft Excel, where half-lives (t½) and rate constant (kobs) for Ac-RYYRWK-NH2 (SEQ ID NO: 1) and Compound 1 were determined by fitting to the equation.

[4] = test system: nociceptin-induced smooth muscle relaxation in mouse vas deferens; assay: Mouse vas deferens assay: antagonism of nociceptin-induced relaxation (Schild pA2); conditions: Schild equation; antagonism of nociceptin-induced relaxation; n = 4
Procedure: as §1
The effects of Ac-RYYRWK-NH2 (SEQ ID NO: 1) and Compound 1 on nociceptin-induced relaxation in the mouse vas deferens assay were also tested. […] Using the Schild equation ^[7], the pA2 values which indicates affinity of a compound as an antagonist were calculated.

human ORL1 receptor [5] = biological target: T1, human ORL1 receptor (human, UniProt P41146 1-370); assay: cell-based or functional assay
human ORL1 receptor [6] = biological target: T1, human ORL1 receptor; assay: cell-based or functional assay; remark: listed apart in the source
human ORL1 receptor [7] = biological target: T1, human ORL1 receptor; assay: binding to hORL1 receptor expressed in CHO cells, one experiment
human ORL1 receptor [8] = biological target: T1, human ORL1 receptor; assay: cell-based or functional assay; remark: listed apart in the source
human ORL1 receptor [9] = biological target: T1, human ORL1 receptor; assay: displacement of [3H]-labeled nociceptin, HEK293 cells transfected with the human ORL1 receptor

T1 sequence (P41146 whole entry): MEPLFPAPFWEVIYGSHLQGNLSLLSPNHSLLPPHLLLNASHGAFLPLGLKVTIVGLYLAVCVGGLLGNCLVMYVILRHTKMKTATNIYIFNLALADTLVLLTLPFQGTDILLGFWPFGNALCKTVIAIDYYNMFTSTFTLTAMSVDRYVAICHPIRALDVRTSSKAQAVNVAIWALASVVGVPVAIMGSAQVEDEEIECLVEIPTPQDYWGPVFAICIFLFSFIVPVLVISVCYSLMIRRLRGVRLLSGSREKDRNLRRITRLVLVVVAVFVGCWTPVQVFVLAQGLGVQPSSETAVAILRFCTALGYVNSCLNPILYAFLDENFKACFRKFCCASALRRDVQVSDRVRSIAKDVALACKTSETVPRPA
Sequence of hORL1 receptor (P41146 whole entry): as above

With CC(=O)N[C@H](CCCCN)C(=O)N[C@H](CCCCN)C(=O)N[C@H](CCCCN)C(=O)N[C@H](CCCCN)C(=O)N[C@H](CCCCN)C(=O)N[C@H](CCCCN)C(=O)N[C@H](CCCCN)C(=O)N[C@H](Cc1c[nH]c2ccccc12)C(=O)N[C@H](CCCNC(=N)N)C(=O)N[C@H](Cc1ccc(O)cc1)C(=O)N[C@H](Cc1ccc(O)cc1)C(=O)N[C@H](CCCNC(=N)N)C(N)=O [Compound 7, Ac-KKKKKKKWRYYR-NH2 (all D)] (HELM PEPTIDE1{[ac].[dK].[dK].[dK].[dK].[dK].[dK].[dK].[dW].[dR].[dY].[dY].[dR].[am]}$$$$V2.0) the IC50 (hORL1 receptor) was over 100000 pM.

With CC(C)C[C@H](NC(=O)[C@H](CCCCN)NC(=O)[C@H](CCCN=C(N)N)NC(=O)[C@H](C)NC(=O)[C@H](CO)NC(=O)[C@H](CCCCN)NC(=O)[C@H](CCCN=C(N)N)NC(=O)[C@H](C)NC(=O)CNC(=O)[C@@H](NC(=O)[C@H](Cc1ccccc1)NC(=O)CNC(=O)CNC(=O)[C@@H](N)Cc1ccccc1)[C@@H](C)O)C(=O)N[C@@H](C)C(=O)N[C@@H](CC(N)=O)C(=O)N[C@@H](CCC(N)=O)C(=O)O [nociceptin, reference compound] the “heart rate, arterial pressure and RSNA” value ([1]; i.v. bolus 30 and 100 nmol/kg, data not shown) was “rapid bradycardia, a hypotensive response and initial RSNA suppression” and the MAP response ([1]; i.v. infusion 11 nmol/kg/min, FIG. 2) was “significantly decreases MAP”.

For Ac-KKKKKKRYYRWK-NH2 [Compound 2], the “potency order for inhibition of electrically-induced contraction of the mouse vas deferens” value (mouse vas deferens) was “nociceptin>Compound 1=Compound 2>>Ac-RYYRWK-NH2”.

For “Ac-RYYRWK-NH2 [Compound CE1, Ac-Arg-Tyr-Tyr-Arg-Trp-Lys-NH2, reference compound]”, the half-life at 0.1 mg/ml ([2]; 37° C., mean (n=3) +/− deviation, read-out: T1/2 in min (degradation in human heparinised plasma)) was 50.7 min, the half-life at 0.1 mg/ml ([2]; read-out: half life in plasma) was under 60 min and the half-life at 0.1 mg/mL [3] was 2 to 5 min. For the same molecule, the “potency order for inhibition of electrically-induced contraction of the mouse vas deferens” value (mouse vas deferens) was “nociceptin>Compound 1=Compound 2>>Ac-RYYRWK-NH2” and the pA2 value [4] was 7.8 (n = 4).

For “Compound 8 Ac-D-Arg-D-Tyr-D-Tyr-D-Arg-D-Trp-D-Lys-D-Lys-D-Lys-D-Lys-D-Lys-D-Lys-D-Lys-NH2 (peptide)”, the Efficacy EC50 (nM), inhibition of forskolin-induced cAMP formation (human ORL1 receptor [5]) was 59 nM.

With Ac-RYNRWKKKKKKK-NH2 [Compound 4 Ac-Arg-Tyr-Asn-Arg-Trp-Lys-Lys-Lys-Lys-Lys-Lys-Lys-NH2] the “Efficacy EC50 (nM), inhibition of forskolin-induced cAMP formation” value (from here on “Efficacy EC50 (nM), inhibition”) (human ORL1 receptor [6]) was 91 nM.

Ac-RYYRWKKKKKK-NH2 [Compound 12 Ac-Arg-Tyr-Tyr-Arg-Trp-Lys-Lys-Lys-Lys-Lys-Lys-NH2] showed an IC50 (human ORL1 receptor [7]) of 150 pM.

With H-NEEEEERYYRWKKKKKKK-NH2 [Compound 3 H-Asn-Glu-Glu-Glu-Glu-Glu-Arg-Tyr-Tyr-Arg-Trp-Lys-Lys-Lys-Lys-Lys-Lys-Lys-NH2] the IC50 (human ORL1 receptor [7]) was 235000 pM and the “Efficacy EC50 (nM), inhibition” value (human ORL1 receptor [6]) was 83 nM.

In the case of Ac-KKKKKKKWRYYR-NH2 [Compound 6 Ac-Lys-Lys-Lys-Lys-Lys-Lys-Lys-Trp-Arg-Tyr-Tyr-Arg-NH2], the IC50 (human ORL1 receptor [7]) is reported as 115000 pM and the “Efficacy EC50 (nM), inhibition” value (human ORL1 receptor [6]) is reported as 135 nM.

B1: Compound 1 Ac-Arg-Tyr-Tyr-Arg-Trp-Lys-Lys-Lys-Lys-Lys-Lys-Lys-NH2 (peptide)
peptide: Ac-RYYRWKKKKKKK-NH2
modifications: also: trifluoroacetate salt
notes: Synthetic peptide conjugate; the primary product is the trifluoroacetate salt; also called Compound I
In the case of B1, the “inhibition of forskoline-induced formation of cAMP, EC50” value (human ORL1 receptor [8]) is reported as 540 pM, the “inhibition of forskoline-induced formation of cAMP, relative maximum relative to nociceptin” value (human ORL1 receptor [8]) is reported as 92% and the Ki (human ORL1 receptor [9]) is reported as 260 pM. For the same molecule, the IC50 (human ORL1 receptor [7]) was 320 pM and the “Efficacy EC50 (nM), inhibition” value (human ORL1 receptor [6]) was 0.58 nM.

With Ac-KYYRWKKKKKKK-NH2 [Compound 9 Ac-Lys-Tyr-Tyr-Arg-Trp-Lys-Lys-Lys-Lys-Lys-Lys-Lys-NH2] the IC50 (human ORL1 receptor [7]) was 3700 pM and the “Efficacy EC50 (nM), inhibition” value (human ORL1 receptor [6]) was 0.035 nM.

Molecule Ac-RYYRIKKKKKKK-NH2 [Compound 10 Ac-Arg-Tyr-Tyr-Arg-Ile-Lys-Lys-Lys-Lys-Lys-Lys-Lys-NH2] has an IC50 (human ORL1 receptor [7]) of 510 pM.

In the case of Ac-RYYRWKAKKKKK-NH2 [Compound 11 Ac-Arg-Tyr-Tyr-Arg-Trp-Lys-Ala-Lys-Lys-Lys-Lys-Lys-NH2], the IC50 (human ORL1 receptor [7]) is reported as 270 pM.

B2: Compound CE1 Ac-Arg-Tyr-Tyr-Arg-Trp-Lys-NH2 (peptide)
peptide: Ac-RYYRWK-NH2
notes: Unconjugated comparison hexapeptide; also called Ac-RYYRWK-NH2
In the case of B2, the IC50 (human ORL1 receptor [7]) is reported as 310 pM and the “Efficacy EC50 (nM), inhibition” value (human ORL1 receptor [6]) is reported as 0.41 nM.
